Test results taken from paper PMC7041945, “Misfolded proteins bind and activate death receptor 5 to trigger apoptosis during unresolved endoplasmic reticulum stress” (eLife, 2020).

What was measured:
Format in all cases: cell-based, Homo sapiens
[1] = test system: DR5 / ERGIC53 / giantin in HCT116 cells; assay: Immunofluorescence co-localization (Pearson's correlation per cell)
Experimental: HCT116 were seeded at 25000 cells per well in an 8-well glass-bottom μSlide (Ibidi 80827) pre-coated with Collagen IV (Sigma-Aldrich C6745, 0.03 mg/ml in PBS incubated for 30 min at RT, and then rinsed off with PBS x 3) in growth media 18 hr prior to transfection (see above for protocol). 24 hr post-transfection, the cells were fixed using 4% paraformaldehyde (PFA, Electron Microscopy Sciences) or methanol, depending on the antibody combination used for immunostaining (see table below). Samples were protected from light after fixation to preserve GFP fluorescence.
For fixation with 4% PFA, 32% PFA was added directly to the well in growth media for a 1:8 dilution and incubated for 10–15 min at RT. Cells were then permeabilized with PHEM buffer (60 mM PIPES, 25 mM HEPES, 10 mM EGTA, 2 mM MgCl2-hexahydrate, pH 6.9) containing 0.1% Triton-X100 for 10 min at RT for three washes.
For fixation with methanol, media was removed and cells were washed with cold PBS. Then methanol (pre-cooled at −20°C) was added to the well and incubated at −20°C for 3–4 min. The methanol was promptly aspirated and replaced with PHEM buffer (without Triton X-100), followed by two more 10 min washes with PHEM at RT.
To block against non-specific antibody interactions, cells were rinsed in PHEM (without 0.1% Triton X-100) and then incubated with PHEM containing 2% normal goat serum (Jackson Immunoresearch Laboratories, 005-000-121) for 1 hr at RT. Primary antibodies were incubated in blocking solution overnight at 4°C at the dilution noted in the table above. […]
From the 405 nm channel, cell nuclei were identified as primary objects using maximum correlation thresholding (MCT) and shape to distinguish clumped objects. […] For overlap between DR5 and MPZ/RHO-GFP, Pearson’s correlation coefficients were calculated within the MPZ/RHO mask for each cell to filter out untransfected cells. For overlap between DR5/MPZ and organelle markers, Pearson’s correlation coefficients were calculated within tertiary objects for the organelle marker in GFP+ cells. […]

HCT116 cells = assay: Annexin V (and SytoxBlue) flow cytometry for apoptosis; details: for Mean ± SEM (Prism T-tests, Annexin V for MPZ-GFP): N=3, values agree with avg Annexin V+; for avg Annexin V+ / avg Annexin V-: mean of 3 replicates; for AnnexinV+ (Statistic, single cells) / AnnexinV- (Statistic, single cells) / GFP+ (Statistic, single cells) / GFP- (Statistic, single cells) / Q1: APC-A- , DAPI-A+ (Statistic, single cells) / Q2: APC-A+ , DAPI-A+ (Statistic, single cells) / Q3: APC-A+ , DAPI-A- (Statistic, single cells) / Q4: APC-A- , DAPI-A- (Statistic, single cells) / SytoxBlue+ (Statistic, single cells) / SytoxBlue- (Statistic, single cells) / dead cells (Statistic) / FITC-A+ (Statistic, dead cells) / FITC-A- (Statistic, dead cells): 2018-01-17 MPZ; for AnnexinV+ (Statistic, single cells): gate all cells/Single Cells/AnnexinV+; for AnnexinV- (Statistic, single cells): gate all cells/Single Cells/AnnexinV-; for GFP+ (Statistic, single cells): gate all cells/Single Cells/GFP+; for GFP- (Statistic, single cells): gate all cells/Single Cells/GFP-; for Q1: APC-A- , DAPI-A+ (Statistic, single cells): gate all cells/Single Cells/Q1; for Q2: APC-A+ , DAPI-A+ (Statistic, single cells): gate all cells/Single Cells/Q2; for Q3: APC-A+ , DAPI-A- (Statistic, single cells): gate all cells/Single Cells/Q3; for Q4: APC-A- , DAPI-A- (Statistic, single cells): gate all cells/Single Cells/Q4; for SytoxBlue+ (Statistic, single cells): gate all cells/Single Cells/SytoxBlue+; for SytoxBlue- (Statistic, single cells): gate all cells/Single Cells/SytoxBlue-; for dead cells (Statistic): gate dead cells of all events; for FITC-A+ (Statistic, dead cells): gate dead cells/Single Cells/FITC-A+; for FITC-A- (Statistic, dead cells): gate dead cells/Single Cells/FITC-A-
Experimental: Cells seeded in a 6-well plate were transfected with the specified plasmid for 24 hr and harvested via trypsinization in complete media to allow a 30 min recovery at 37°C. The samples were then centrifuged at 500xg for 5 min and resuspended In 150 μl of a 1:20 dilution of Annexin V-AlexaFluor 647 conjugate (Thermo Scientific #A23204). Samples were transferred to a 96-well U-bottom plate and incubated in the dark for 15 min at RT. The distribution of apoptotic cells was determined by flow cytometry on a BD LSR II.

[2] = test system: XBP1 mRNA in HCT116 cells; assay: RT-PCR for Xbp1 mRNA splicing; details: HCT116, 24 hr
Experimental: Cells were grown in 6-well plates and harvested with 0.5 ml of TRIzol reagent (Life Technologies) per manufacturer's protocol to extract RNA. […] The reverse transcription product was diluted to 200 μl with 10 mM Tris-HCl pH 8.2 and used at 1:100 dilution for subsequent RT-PCR reactions. 2 μl of cDNA was added to 0.2 μM of forward and reverse primers ([…]; Hs_XBP1_Rev: [NT]), 0.2 mM of each dNTP, 0.5 units of Taq DNA polymerase (Thermo Scientific). The reaction was set at an annealing temperature of 60.5°C with an extension time of 30 s for 26 cycles.

[3] = MPZ-positive cells, N > 55, 24 hr, mean
[4] = siRNA DR5 (siDR5), 2017-01-17 Replicate
[5] = siRNA DR5 (siDR5), 2018-06-21 Rep 1
[6] = siRNA DR5 (siDR5), 2018-06-21 Rep 2
[7] = siRNA scrambled, 2017-01-17 Replicate
[8] = siRNA scrambled, Tg sample with empty construct
[9] = siRNA scrambled, 2018-06-21 Rep 1
[10] = siRNA scrambled, 2018-06-21 Rep 2

B1: MPZ-GFP: myelin protein zero with a C-terminal monomeric EGFP, expressed from plasmid (protein)
chain: IVVYTDREVHGAVGSRVTLHCSFWSSEWVSDDISFTWRYQPEGGRDAISIFHYAKGQPYIDEVGTFKERIQWVGDPRWKDGSIVIHNLDYSDNGTFTCDVKNPPDIVGKTSQVTLYVFEKVPTRYGVVLGAVIGGVLGVVLLLLLLFYVVRYCWLRRQAALQRRLSAMEKGKLHKPGKDASKRGRQTPVLYAMLDHSRSTKAVSEKKAKGLGESRKDKK
modifications: left off: monomeric EGFP, C-terminal, kept
notes: myelin protein zero with a C-terminal monomeric EGFP, expressed from plasmid
Q: With B1 as the molecule, how does the “Pearson's correlation per cell between DR5 and ERGIC53” value [1, 3] read?
A: 0.61 ± 0.03

Q: What about the “Pearson's correlation per cell between DR5 and giantin” value [1, 3] of the same molecule?
A: 0.14 ± 0.02

Q: And the “overlap (mean Pearson's correlation) with DR5 signal” value ([1]; versus 90° rotated images, 24 hr)?
A: statistically significant overlap with DR5 signal

Q: What about the Difference between means (HCT116 cells; MPZ-GFP siDR5 vs. MPZ-GFP) of the same molecule?
A: -18 ± 5.2

Q: And the “Mean ± SEM (Fig 1S2D)” value (HCT116 cells; MPZ-GFP, mean ± SEM, n=3)?
A: 37.91 ± 5.341, n=3

Q: And the “Mean ± SEM (Prism T-tests, Annexin V for MPZ-GFP)” value (HCT116 cells; no siDR5, mean ± SEM)?
A: 33 ± 4.7 N=3

Q: What about the “Mean ± SEM (Prism T-tests, Annexin V for MPZ-GFP)” value (HCT116 cells; siDR5, mean ± SEM) of the same molecule?
A: 15 ± 2.3 N=3

Q: And the “Annexin V+” value (HCT116 cells; [4])?
A: 10.4

Q: What about the “Annexin V-” value (HCT116 cells; [4]) of the same molecule?
A: 89.6

Q: What about the “Annexin V+” value (HCT116 cells; [5]) of the same molecule?
A: 17

Q: What about the “Annexin V-” value (HCT116 cells; [5]) of the same molecule?
A: 83

Q: What about the “Annexin V+” value (HCT116 cells; [6]) of the same molecule?
A: 17.8

Q: What about the “Annexin V-” value (HCT116 cells; [6]) of the same molecule?
A: 82.2

Q: What about the “avg Annexin V+” value (HCT116 cells; siRNA DR5 (siDR5)) of the same molecule?
A: 15.0667

Q: And the “avg Annexin V-” value (HCT116 cells; siRNA DR5 (siDR5))?
A: 84.9333

Q: And the “AnnexinV+ (Statistic, single cells)” value (HCT116 cells; siRNA DR5)?
A: 10.4

Q: What about the “AnnexinV- (Statistic, single cells)” value (HCT116 cells; siRNA DR5) of the same molecule?
A: 89.6

Q: And the “GFP+ (Statistic, single cells)” value (HCT116 cells; siRNA DR5)?
A: 40.8

Q: And the “GFP- (Statistic, single cells)” value (HCT116 cells; siRNA DR5)?
A: 59.2

Q: What about the “Q1: APC-A- , DAPI-A+ (Statistic, single cells)” value (“Q1: APC-A- ” below) (HCT116 cells; siRNA DR5) of the same molecule?
A: 1.26

Q: And the “Q2: APC-A+ , DAPI-A+ (Statistic, single cells)” value (“Q2: APC-A+ ” for short) (HCT116 cells; siRNA DR5)?
A: 8.07

Q: And the “Q3: APC-A+ , DAPI-A- (Statistic, single cells)” value (from here on “Q3: APC-A+ ”) (HCT116 cells; siRNA DR5)?
A: 1.36

Q: What about the “Q4: APC-A- , DAPI-A- (Statistic, single cells)” value (from here on “Q4: APC-A- ”) (HCT116 cells; siRNA DR5) of the same molecule?
A: 89.3

Q: What about the “SytoxBlue+ (Statistic, single cells)” value (HCT116 cells; siRNA DR5) of the same molecule?
A: 9.1

Q: And the “SytoxBlue- (Statistic, single cells)” value (HCT116 cells; siRNA DR5)?
A: 90.9

Q: And the “dead cells (Statistic)” value (HCT116 cells; siRNA DR5)?
A: 6.03

Q: What about the “FITC-A+ (Statistic, dead cells)” value (HCT116 cells; siRNA DR5) of the same molecule?
A: 43.4

Q: And the “FITC-A- (Statistic, dead cells)” value (HCT116 cells; siRNA DR5)?
A: 56.6

Q: What about the “AnnexinV+ (Statistic, single cells)” value (HCT116 cells; siRNA TRAIL) of the same molecule?
A: 20.8

Q: And the “AnnexinV- (Statistic, single cells)” value (HCT116 cells; siRNA TRAIL)?
A: 79.2

Q: And the “GFP+ (Statistic, single cells)” value (HCT116 cells; siRNA TRAIL)?
A: 47.9

Q: And the “GFP- (Statistic, single cells)” value (HCT116 cells; siRNA TRAIL)?
A: 52.1

Q: And the “Q1: APC-A- ” value (HCT116 cells; siRNA TRAIL)?
A: 2.56

Q: What about the “Q2: APC-A+ ” value (HCT116 cells; siRNA TRAIL) of the same molecule?
A: 16.8

Q: And the “Q3: APC-A+ ” value (HCT116 cells; siRNA TRAIL)?
A: 2.29

Q: And the “Q4: APC-A- ” value (HCT116 cells; siRNA TRAIL)?
A: 78.3

Q: What about the “SytoxBlue+ (Statistic, single cells)” value (HCT116 cells; siRNA TRAIL) of the same molecule?
A: 18.9

Q: And the “SytoxBlue- (Statistic, single cells)” value (HCT116 cells; siRNA TRAIL)?
A: 81.1

Q: What about the “dead cells (Statistic)” value (HCT116 cells; siRNA TRAIL) of the same molecule?
A: 10.4

Q: And the “FITC-A+ (Statistic, dead cells)” value (HCT116 cells; siRNA TRAIL)?
A: 43.4

Q: And the “FITC-A- (Statistic, dead cells)” value (HCT116 cells; siRNA TRAIL)?
A: 56.6

Q: And the “Annexin V+” value (HCT116 cells; [7])?
A: 41.8

Q: What about the “Annexin V-” value (HCT116 cells; [7]) of the same molecule?
A: 58.2

Q: And the “AnnexinV+ (Statistic, single cells)” value (HCT116 cells; [8])?
A: 41.8

Q: And the “AnnexinV- (Statistic, single cells)” value (HCT116 cells; [8])?
A: 58.2

Q: What about the “GFP+ (Statistic, single cells)” value (HCT116 cells; [8]) of the same molecule?
A: 60.1

Q: What about the “GFP- (Statistic, single cells)” value (HCT116 cells; [8]) of the same molecule?
A: 39.9

Q: And the “Q1: APC-A- ” value (HCT116 cells; [8])?
A: 10.7

Q: What about the “Q2: APC-A+ ” value (HCT116 cells; [8]) of the same molecule?
A: 31.7

Q: What about the “Q3: APC-A+ ” value (HCT116 cells; [8]) of the same molecule?
A: 8.04

Q: What about the “Q4: APC-A- ” value (HCT116 cells; [8]) of the same molecule?
A: 49.5

Q: And the “SytoxBlue+ (Statistic, single cells)” value (HCT116 cells; [8])?
A: 40

Q: And the “SytoxBlue- (Statistic, single cells)” value (HCT116 cells; [8])?
A: 60

Q: And the “dead cells (Statistic)” value (HCT116 cells; [8])?
A: 22

Q: What about the “FITC-A+ (Statistic, dead cells)” value (HCT116 cells; [8]) of the same molecule?
A: 37.6

Q: And the “FITC-A- (Statistic, dead cells)” value (HCT116 cells; [8])?
A: 62.4

Q: What about the “Annexin V+” value (HCT116 cells; [9]) of the same molecule?
A: 25.8

Q: And the “Annexin V-” value (HCT116 cells; [9])?
A: 74.2

Q: What about the “Annexin V+” value (HCT116 cells; [10]) of the same molecule?
A: 32

Q: What about the “Annexin V-” value (HCT116 cells; [10]) of the same molecule?
A: 68

Q: And the “avg Annexin V+” value (HCT116 cells; siRNA scrambled)?
A: 33.2

Q: What about the “avg Annexin V-” value (HCT116 cells; siRNA scrambled) of the same molecule?
A: 66.8

Q: And the “XBP1 mRNA splicing” value [2]?
A: initiated a few hours post-transfection with MPZ-GFP and later attenuated
